# Assay results published in IntAct's records for PubMed 19732766.
# B1: U3 small nucleolar RNA-associated protein 4 homolog (Homo sapiens), Q969X6 (parent)
# chain: MGEFKVHRVRFFNYVPSGIRCVAYNNQSNRLAVSRTDGTVEIYNLSANYFQEKFFPGHESRATEALCWAEGQRLFSAGLNGEIMEYDLQALNIKYAMDAFGGPIWSMAASPSGSQLLVGCEDGSVKLFQITPDKIQFERNFDRQKSRILSLSWHPSGTHIAAGSIDYISVFDVKSGSAVHKMIVDRQYMGVSKRKCIVWGVAFLSDGTIISVDSAGKVQFWDSATGTLVKSHLIANADVQSIAVADQEDSFVVGTAEGTVFHFQLVPVTSNSSEKQWVRTKPFQHHTHDVRTVAHSPTALISGGTDTHLVFRPLMEKVEVKNYDAALRKITFPHRCLISCSKKRQLLLFQFAHHLELWRLGSTVATGKNGDTLPLSKNADHLLHLKTKGPENIICSCISPCGSWIAYSTVSRFFLYRLNYEHDNISLKRVSKMPAFLRSALQILFSEDSTKLFVASNQGALHIVQLSGGSFKHLHAFQPQSGTVEAMCLLAVSPDGNWLAASGTSAGVHVYNVKQLKLHCTVPAYNFPVTAMAIAPNTNNLVIAHSDQQVFEYSIPDKQYTDWSRTVQKQGFHHLWLQRDTPITHISFHPKRPMHILLHDAYMFCIIDKSLPLPNDKTLLYNPFPPTNESDVIRRRTAHAFKISKIYKPLLFMDLLDERTLVAVERPLDDIIAQLPPPIKKKKFGT
# Variants of: B1
# Details: with zep1_human HIVEP1, P15822
row,effect of a mutation on the interaction,Variant
1,decreasing interaction,R565W
